Consider three molecules from patent US20210147546A1 (VRIJE UNIVERSITEIT BRUSSEL, published 2021).

A word on the Kd: it is the constant that tells how readily two partners part at equilibrium. What is called IC50 is the concentration at which inhibition is half-maximal.

In assay [1] the target is T1, human PD-L1 expressed on cells (lentivirally transduced HEK293T, MCF7 and 624-MEL cells; endogenous on moDCs) (human, UniProt Q9NZQ7 19-290).
T1 construct: whole, on cells; also called PD-L1+ MCF7
T1 sequence (Q9NZQ7 19-290): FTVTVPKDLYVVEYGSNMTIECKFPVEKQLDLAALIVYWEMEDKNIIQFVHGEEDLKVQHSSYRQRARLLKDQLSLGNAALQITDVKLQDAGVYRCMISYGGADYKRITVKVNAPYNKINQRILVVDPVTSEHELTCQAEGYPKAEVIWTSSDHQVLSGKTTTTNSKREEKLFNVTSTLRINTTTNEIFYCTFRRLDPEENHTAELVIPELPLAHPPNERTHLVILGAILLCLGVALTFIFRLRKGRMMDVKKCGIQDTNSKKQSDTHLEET
Put plainly: flow cytometry, fold increase in mean fluorescence intensity of binding to human PD-L1 compared to control sdAb. (In general: A flow cytometer gives signals particle by particle.)

Assay [2] addresses T2, recombinant His-tagged human PD-L1 protein (SINO Biologicals, 10084-H08H) (human, UniProt Q9NZQ7 19-238).
T2 construct: Bought protein; also called immobilized recombinant PD-L1 protein; not shown: His-tag
Nature of the assay: SPR (Biacore T200), purified sdAb over immobilized recombinant human PD-L1. The protocol:
(§1) All measurements were performed on a Biacore T200 device (GE Healtcare) at 25° C. and using Hepes-buffered saline (0.01M HEPES, pH 7.4; 0.15M NaCl, 3 mM EDTA, 0.005% Tween20) as running buffer. All recombinant proteins were dissolved to 10 μg/mL in 10 mM Na-acetate (pH 5.0) for immobilization on a CM5 sensor chip using linkage chemistry with 1-(3-(dimethylamino)propyl)-3-ethylcarbodiimide (EDC) and N-hydroxy-succinimide ([…]). Unreacted EDC-NHS linkers were blocked with 1M ethanolamine-HCl. For all measurements, SPR signals in the flow cell with immobilized protein were subtracted with those in a flow cell that underwent the same manipulations but where recombinant protein was omitted, to obtain specific binding signals (response units, RU). Affinity for human PD-L1 of the purified sdAbs was evaluated on immobilized PD-L1 protein.
For orientation: Surface plasmon resonance follows binding to a sensor surface in real time, without labels.

Assay [3] addresses T3, recombinant Fc-tagged human PD-L1 (R&D Systems, 156-B7) (human, UniProt Q9NZQ7 19-239).
T3 construct: Bought protein; Also the immunogen for the alpacas; also called PD-L1-Fc; Fc-PD-L1; not shown: Fc tag
Put plainly: SPR competition: sdAb K2 (0,78 to 1000 nM) mixed with 25 nM PD-L1-Fc and run over immobilized PD-1 Fc. The binder is named by legend paragraph 20, not on the sheet. The text gives 9.5 nM for this figure. As for the experimental part: as §1
(§2) To evaluate the sdAb's IC₅₀, the sdAb concentration at which the relative response of the interaction between PD-1 and PD-L1 is inhibited by half, Fc-PD-1 protein was immobilized on a CM5 chip. […] The maximum relative response values were plotted in function of competing sdAb concentration and analyzed with a “Log inhibitor versus response (variable lope)” model in Prism to calculate IC₅₀ values.

Assay [4] concerns the target T3, recombinant Fc-tagged human PD-L1 (R&D …). Nature of the assay: SPR competition: sdAb mixed with 25 nM PD-L1-Fc, run over immobilized PD-1-Fc (FIG. 5A). The protocol:
as §1, §2

Assay [5] has the same target. Nature of the assay: SPR competition: sdAb mixed with soluble recombinant human PD-L1, run over immobilized human PD-1 (FIG. 16B).
Text: as §2

T2 sequence (Q9NZQ7 19-238 limits assumed): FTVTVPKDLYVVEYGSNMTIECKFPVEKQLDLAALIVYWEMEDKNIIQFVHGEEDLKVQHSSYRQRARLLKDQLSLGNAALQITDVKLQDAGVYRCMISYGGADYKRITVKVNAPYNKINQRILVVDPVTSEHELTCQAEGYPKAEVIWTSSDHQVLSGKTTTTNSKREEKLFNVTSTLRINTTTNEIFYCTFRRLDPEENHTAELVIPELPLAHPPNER
T3 sequence (Q9NZQ7 19-239 limits assumed): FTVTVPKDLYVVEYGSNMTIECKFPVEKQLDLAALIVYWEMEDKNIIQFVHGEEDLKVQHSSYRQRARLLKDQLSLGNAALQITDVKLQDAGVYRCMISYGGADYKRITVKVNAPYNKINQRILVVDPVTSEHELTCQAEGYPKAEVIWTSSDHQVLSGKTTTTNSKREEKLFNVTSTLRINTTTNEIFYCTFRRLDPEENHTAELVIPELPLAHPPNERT

B1: sdAb K4 (human PD-L1-specific single domain antibody, C-terminal HIS-tag) (VHH)
VHH: QVQLQESGGGLVQPGGSLRLSCAASGFTFSSFAMSWVRQVPGRTLEWVSDINTGGDSTDYANSVKGRFTISRDNAKNTLYLQMNSLKPDDTAVYYCANVPKELVFSFASWGRGTQVTVSS
With B1, the “MFI PD-L1 binding (fold increase)” value in assay [1] is 6.9 fold. Besides, the Kd in assay [2] turned out to be 4.5 nM.

B2: sdAb K2 (human PD-L1-specific single domain antibody, C-terminal HIS-tag) (VHH)
VHH: QVQLQESGGGLVQPGGSLRLSCAASGFTFSSFAMSWVRQAPGKGLEWVSDIDTTGRTTDYADSVKGRFTISRDNAENTLYLQMNDLKPEDTAVYYCANVPKELVLSFGSWGPGTQVTVSS
notes: also called anti-hPD-L1 sdAb K2; K2 (huPDL1 nanobody)
On to B2, for which the “MFI PD-L1 binding (fold increase)” value in assay [1] was determined as 22.8 fold. In addition, the IC50 in assay [3] turned out to be 10 nM; in assay [4], 9.5 nM; in assay [5], 8.5 nM. In addition, in assay [2], the equilibrium dissociation constant (Kd) was determined as 5.2 nM.

B3: sdAb K3 (human PD-L1-specific single domain antibody, C-terminal HIS-tag) (VHH)
VHH: QVQLQESGGGSVQPGGSLRLSCEASGFTFSSYAMSWVRQAPGEGLEWVSDINTGGDNTDYAGSVKGRFTISRDNAKNTLYLQMDSLKPEDTAKYYCANVPKELVHSFNSWGQGTQVTVSS
notes: also called K3 (huPDL1 nanobody)
Turning to B3, in assay [1], the “MFI PD-L1 binding (fold increase)” value came out at 23.4 fold. Moreover, the dissociation constant Kd in assay [2] stood at 3.5 nM.
